# Source: patent US20240117030A1 (Pfizer, published 2024)
# Substitutions are numbered along the chain they refer to.
# T1: recombinant human IL-4 (human, UniProt P05112 25-153)
# T1 sequence (looked up): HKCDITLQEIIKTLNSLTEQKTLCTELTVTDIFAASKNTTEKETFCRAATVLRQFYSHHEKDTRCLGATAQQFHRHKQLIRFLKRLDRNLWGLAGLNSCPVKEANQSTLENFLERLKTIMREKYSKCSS
# T2: recombinant human IL-33 (human, UniProt O95760 112-270, limits assumed)
# T2 sequence (looked up): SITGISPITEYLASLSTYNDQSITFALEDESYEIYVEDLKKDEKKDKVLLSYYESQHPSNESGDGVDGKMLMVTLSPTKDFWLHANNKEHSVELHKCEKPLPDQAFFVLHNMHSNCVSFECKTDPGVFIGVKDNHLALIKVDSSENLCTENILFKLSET
# T3: human IL-33 mm2 Cys (human, UniProt O95760 112-270, limits assumed)
# T3 sequence (looked up): T2 sequence (looked up) with C97S, C116S, C121S, C148S
# B1: IL13433-1042 (other)
# heavy: EVQLVESGGGLVQPGGSLRLSCAASGFTFSSYWMYWVRQAPGKGLEWVAAITPNAGEDYYPESVKGRFTISRDNAKNSLYLQMNSLRAEDTAVYYCARGQYYYTKYSLGYWGQGTLVTVSSASTKGPSVFPLAPSSKSTSGGTAALGCLVKDYFPEPVTVSWNSGALTSGVHTFPAVLQSSGLYSLSSVVTVPSSSLGTQTYICNVNHKPSNTKVDKKVEPKSCRKTHTCPRCPAPEAAGAPSVFLFPPKPKDTLMISRTPEVTCVVVDVSHEDPEVKFNWYVDGVEVHNAKTKPREEQYNSTYRVVSVLTVLHQDWLNGKEYKCKVSNKALPAPIEKTISKAKGQPREPQVYTLPPSREEMTKNQVSLTCLVKGFYPSDIAVEWESNGQPENNYKTTPPVLDSDGSFFLYSRLTVDKSRWQQGNVFSCSVLHEALHSHYTQKSLSLSPGK
# chain 1: DIQMTQSPSSLSASVGDRVTITCKASESVDHFGWSLVHWYQQKPGKAPKLLIYRASNLESGVPSRFSGSGSGTDFTLTISSLQPEDFATYYCQQSNEDPWTFGGGTKVEIKRTVAAPSVFIFPPSDEQLKSGTASVVCLLNNFYPREAKVQWKVDNALQSGNSQESVTEQDSKDSTYSLSSTLTLSKADYEKHKVYACEVTHQGLSSPVTKSFNRGECGGGGSEVTLRESGPALVKPTQTLTLTCTFSGFSLSNFGEGLSWIRQPPGKGLEWLAHIYWDDDKRYNPSLKSRLTISKDTSRNQVVLTMTNMDPVDTATYYCARRETVFYWYFDVWGQGTTVTVSSASTKGPSVFPLAPSSKSTSGGTAALGCLVKDYFPEPVTVSWNSGALTSGVHTFPAVLQSSGLYSLSSVVTVPSSSLGTQTYICNVNHKPSNTKVDKKVEPKSCEKTHTCPECPAPEAAGAPSVFLFPPKPKDTLMISRTPEVTCVVVDVSHEDPEVKFNWYVDGVEVHNAKTKPREEQYNSTYRVVSVLTVLHQDWLNGKEYKCKVSNKALPAPIEKTISKAKGQPREPQVYTLPPSREEMTKNQVSLTCEVKGFYPSDIAVEWESNGQPENNYKTTPPVLDSDGSFFLYSKLTVDKSRWQQGNVFSCSVLHEALHSHYTQKSLSLSPGK
# light 1: DIQMTQSPSSLSASVGDRVTITCRASQPIHNHLDWYQQKPGKAPKLLIYFGKNLQEGVPSRFSGSGSGTDFTLTISSLQPEDFATYYCFQYKKGWSFGGGTKVEIKRTVAAPSVFIFPPSDEQLKSGTASVVCLLNNFYPREAKVQWKVDNALQSGNSQESVTEQDSKDSTYSLSSTLTLSKADYEKHKVYACEVTHQGLSSPVTKSFNRGEC
# light 2: DIQMTQSPSSLSASVGDRVTITCRASQSVDEEGDSYMNWYQQKPGKAPKLLIYAASNLESGVPSRFSGSGSGTDFTLTISSLQPEDFATYYCQQSNEDPPTFGGGTKVEIKRTVAAPSVFIFPPSDEQLKSGTASVVCLLNNFYPREAKVQWKVDNALQSGNSQESVTEQDSKDSTYSLSSTLTLSKADYEKHKVYACEVTHQGLSSPVTKSFNRGEC
# chain 2: EVQLVESGGGLVQPGGSLRLSCAASGFTFSSYAMSWVRQAPGKGLEWVASISSGDTTYYPDSVKGRFTISRDNAKNSLYLQMNSLRAEDTAVYYCARNEGYYFGLTLWGQGTLVTVSSASTKGPSVFPLAPSSKSTSGGTAALGCLVKDYFPEPVTVSWNSGALTSGVHTFPAVLQSSGLYSLSSVVTVPSSSLGTQTYICNVNHKPSNTKVDKKVEPKSC
# B2: IL13433-1261 (other)
# heavy: B1 heavy with R225D, R232P
# chain 1: B1 chain 1 with E448D, E455P
# light 1: B1 light 1
# light 2: B1 light 2 with E97K
# chain 2: B1 chain 2
# B3: IL13433-1270 (other)
# heavy: B1 heavy with L132K, V189S, R225D, R232P, Y353C, T370W, R413K
# chain 1: B1 chain 1 with L355E, S410G, E448D, E455P, S581C, T593S, E595A, Y634V
# light 1: B1 light 1 with V132S, S175D
# light 2: B1 light 2 with E97K, V137S, S180K
# chain 2: B1 chain 2
# B4: IL13433-1275 (other)
# heavy: B1 heavy with R225D, R232P, T370W, R413K
# chain 1: B1 chain 1 with E448D, E455P, T593S, E595A, Y634V
# light 1: B1 light 1
# light 2: B1 light 2 with E97K
# chain 2: B1 chain 2
# B5: IL13433-1279 (other)
# VH 1: EVQLVESGGGLVQPGGSLRLSCAASGFTFSSYAMSWVRQAPGKGLEWVASISSGDTTYYPDSVKGRFTISRDNAKNSLYLQMNSLRAEDTAVYYCARNEGYYFGLTLWGQGTLVTVSS
# VL 1: DIQMTQSPSSLSASVGDRVTITCKASESVDHFGWSLVHWYQQKPGKAPKLLIYRASNLESGVPSRFSGSGSGTDFTLTISSLQPEDFATYYCQQSNEDPWTFGGGTKVEIK
# VH 2: EVTLRESGPALVKPTQTLTLTCTFSGFSLSNFGEGLSWIRQPPGKGLEWLAHIYWDDDKRYNPSLKSRLTISKDTSRNQVVLTMTNMDPVDTATYYCARRETVFYWYFDVWGQGTTVTVSS
# VL 2: DIQMTQSPSSLSASVGDRVTITCRASQSVDEEGDSYMNWYQQKPGKAPKLLIYAASNLESGVPSRFSGSGSGTDFTLTISSLQPEDFATYYCQQSNKDPPTFGGGTKVEIK
# VH 3: EVQLVESGGGLVQPGGSLRLSCAASGFTFSSYWMYWVRQAPGKGLEWVAAITPNAGEDYYPESVKGRFTISRDNAKNSLYLQMNSLRAEDTAVYYCARGQYYYTKYSLGYWGQGTLVTVSS
# VL 3: DIQMTQSPSSLSASVGDRVTITCRASQPIHNHLDWYQQKPGKAPKLLIYFGKNLQEGVPSRFSGSGSGTDFTLTISSLQPEDFATYYCFQYKKGWSFGGGTKVEIK
# B6: IL33-0217 (antibody, human IgG1, kappa, V domains shown)
# VH: B5 VH 3 with Q100H, K105S
# VL: DIQMTQSPSSLSASVGDRVTITCRASQNINKHLDWYQQKPGKAPKLLIYFTNNLQTGVPSRFSGSGSGTDFTLTISSLQPEDFATYYCFQYNQGWTFGGGTKVEIKR
# B7: IL33-0220 (antibody, human IgG1, kappa, V domains shown)
# VH: B5 VH 3 with Q100H, K105S
# VL: B6 VL with N30Y
# B8: IL33-0219 (antibody, human IgG1, kappa, V domains shown)
# VH: B5 VH 3 with Q100H, K105S
# VL: B6 VL with N30Q
# B9: IL33-0224 (antibody, human IgG1, V domains shown)
# VH: B5 VH 3 with Q100H, K105S
# VL: B5 VL 3 with H30S, N31K, G51T, K52N, E56T, K92N, K93Q, S96T
# B10: TSLP-0820 (antibody, human IgG1, lambda, V domains shown)
# VH: EMQLVESGGGLVQPGGSLRLSCAASGFTFRTYGMHWVRQAPGKGLEWVAVIWYDGSNKHYADSVKGRFTISRDNAKNSLYLQMNSLRAEDTAVYYCARAPQWYLVHEAFDIWGQGTMVTVSS
# VL: SYVLTQPPSVSVAPGQTARITCGGNNLGSKSVHWYQQKPGQAPVLVVYDDSDRPSWIPERFSGSNSGNTATLTISRGEAGDEADYYCQVWDSSSDHVVFGGGTKLTVLG
# B11: TSLP-2004 (antibody, human IgG1, lambda, V domains shown)
# VH: B10 VH
# VL: B10 VL with S92K
# B12: TSLP-2002 (antibody, human IgG1, lambda, V domains shown)
# VH: B10 VH
# VL: B10 VL with S51K, S93K
# B13: TSLP-2000 (antibody, human IgG1, lambda, V domains shown)
# VH: B10 VH
# VL: B10 VL with D95K
# B14: IL13-1283 (antibody, human IgG1, kappa, V domains shown)
# VH: B5 VH 1 with S30I, D55G, T56N, N98L, E99D, L105F, T106A, L107Y
# VL: DIQMTQSPSSLSASVGDRVTITCKASESVDNYGKSLMHWYQQKPGKAPKLLIYRASNLESGVPSRFSGSGSGTDFTLTISSLQPEDFATYYCQQSNEDPWTFGGGTKVEIKR
# B15: IL13-1306 (antibody, mouse IgG1, V domains shown)
# VH: EVKLVESGGDLVKPGGSLKLSCAASGFTFSSYAMSWVRQSPDKRLEWVASISSGDTTYYPDSVKGRFTISRDNARNILYLQMTSLRSEDTAMYYCARLDGYYFGFPYWGQGTLVTVSA
# VL: DTVLTQSPASLAVSLGQRATISCKASESVDHSGSSLMHWYQQKPGQSPKLLIYRASNLESGIPARFSGSGSRTDFTLTINPVEADDVATYYCQQSNEDPWTFGGGTKLEIK
# Molecular target: T1, recombinant human IL-4
# Assay: cell-based or functional assay
row,Binder,"IL-4 Induced CD23 Expression, potency of cytokine neutralization [nM]"
1,B1,0.0071
2,B2,0.0139
3,B3,0.0165
4,B4,0.0149
5,B5,0.0137

# Molecular target: T2, recombinant human IL-33
# Assay: cell-based or functional assay
row,Binder,"IL-33 WT Activation of SEAP Reporter Cells, potency of cytokine neutralization [nM]"
1,B1,0.028
2,B2,0.021
3,B3,0.012
4,B4,0.013
5,B5,0.013

# Molecular target: recombinant human IL-13 (human, UniProt P35225 35-146)
# Sequence (P35225 35-146 limits assumed): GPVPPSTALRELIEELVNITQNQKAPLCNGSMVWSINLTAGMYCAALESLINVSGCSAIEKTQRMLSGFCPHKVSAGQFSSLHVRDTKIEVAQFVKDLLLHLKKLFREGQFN
# Assay: cell-based or functional assay
row,Binder,"IL-13 Induced CD23 Expression, potency of cytokine neutralization [nM]"
1,B1,0.0124
2,B2,0.00897
3,B3,0.00758
4,B4,0.00888
5,B5,0.00913

# Molecular target: T3, human IL-33 mm2 Cys
# Assay: cell-based or functional assay
row,Binder,IC50 [pM] versus human IL-33 mm2 Cys (HEK-Blue SEAP) [pM]
1,B6,158
2,B7,176
3,B8,142
4,B9,115

# Molecular target: recombinant human TSLP (glycosylated long form) (human, UniProt Q969D9 29-159)
# Assay: cell-based or functional assay
row,Binder,a-TSLP TARC bioassay (fold change to TSLP-0001) [fold]
1,B10,2.5
2,B11,6.4
3,B12,5.1
4,B13,7.2

# Molecular target: human IL-13 (human, UniProt P35225 35-146)
# Sequence (P35225 35-146 limits assumed, form in doubt): as the sequence (P35225 35-146 limits assumed) above
# Assay: cell-based or functional assay
Binder,CD23 IC50 [pM],pSTAT6 IC50 [pM]
B14,261,427
B15,,290
